According to patent publication US6797467B1, “Compositions and methods for determining interactions of mitochondrial components, and for identifying agents that alter such interactions” (MitoKor, Inc., priority 1999, dated 2004):

Tests used:
CypD rotamase activity = molecular target: T1, CypD rotamase activity (Homo sapiens, UniProt P30405); assay: Rotamase (peptidylprolyl cis-trans isomerase) solvent jump assay; type: biochemical; conditions: relative to reactions without added enzyme; FIG. 12, 13
T1 construct: made in house; host or cells: E. coli (pMK12-GST-huCypD)
Description: Cyclophilin binding to ANT present in the SMP was determined using soluble recombinant GST-cyclophilin D (see Example 10, above). Rotamase (peptidylprolyl cis-trans isomerase) activity of the GST-CypD preparation was determined according to the “solvent jump” method of Kofron et al. (1991 Biochemistry 30: 6127-6134). Briefly, Ala-Ala-cis/trans-Pro-Phe-pNa was used as the rotamase substrate, coupled with α-chymotrypsin cleavage of all trans-Pro containing peptide to yield p-nitroanilide, detected by absorbance at 390 nm.

[1] = molecular target: T2, ANT/BR PLS (human ANT3 and bacteriorhodopsin) (Homo sapiens, UniProt P30405); assay: GST-CypD binding to proteoliposomes reconstituted with huANT3 and bacteriorhodopsin (ANT/BR PLS); conditions: FIG. 14
T2 construct: GST-huCypD: E. coli; Bacteriorhodopsin: purchased
Description: Preformed liposomes were prepared by a freeze/thaw/sonication procedure. Briefly, egg-yolk lecithin (240 mg) was suspended in 3 ml of reconstitution buffer (50 mM NaCl, 10 mM HEPES, pH 7.4). The suspension was pulsed with argon stream to remove oxygen, partially frozen by contacting the vessel with a dry ice/ethanol bath, and sonicated as described above for SMP except the sonication period was for 1 min. The freeze/sonication step was repeated at least 3-4 times until clarification of lipid suspension was achieved.
Small EconoColumns™ (BioRad, Hercules, Calif.) were filled with 1.7 gm of SM-2 BioBeads™ (BioRad), washed with methanol followed by water, and equilibrated with the reconstitution buffer. […] Control (protein-free) liposomes were prepared in parallel by adding 0.5 ml of the elution buffer (50 mM NaCl, 1 mM EDTA, 10 mM Hepes, 1.3% Triton X-100™) to 200 μl of the liposome suspension. Each mixture was vortexed, applied to the BioBeads™ SM-2 column and passed through the column 5-6 times. Formation of proteoliposomes was visualized by apparent turbidity of the solution. Non-entrapped MUP or ATP was removed either during pelleting of the proteoliposomes by centrifugation, or by filtration of the proteoliposome suspension on a column of Sephadex™ G-50 (Pharmacia, Piscataway, N.J.).
Bacteriorhodopsin (BR) was co-reconstituted into the ANT liposomes as follows. […]

[2] = molecular target: T3, ANT present in the SMP (recombinant human ANT3) (Homo sapiens, UniProt P30405); assay: GST-CypD binding to submitochondrial particles (SMP) from T. ni cells expressing His-tagged huANT3; conditions: 2.6 μM GST-CypD, 1 mg SMP; 0 hr, 3 hr, 6 hr; FIG. 11
T3 construct: made in house; host or cells: His-huANT3: submitochondrial particles of baculovirus-infected Trichoplusia ni cells; GST-huCypD: E. coli
Description: SMP preparation was according to a modification of Halestrap et al. (1998 Biochim. Biophys. Acta 1366:79-94), and all steps were performed at 4° C. Starting material was one liter of cell culture, corresponding to 1×10^9 T. ni cells. Cells were pelleted by centrifugation and stored frozen at −20° C. For isolation of mitochondria, the cell pellet was thawed and resuspended in 15 ml of mitochondrial isolation buffer (MIB, all reagents from Sigma, St. Louis, Mo., unless otherwise noted): 0.22 M mannitol, 70 mM sucrose, 10 mM Hepes, 0.2 mM EDTA, 0.2 mM 2-mercaptoethanol (2-ME), pH 7.2 plus a standard protease inhibitor cocktail (Roche Molecular Biochemicals, Indianapolis, Ind.). The suspension was subjected to two freeze-thaw cycles by shell-freezing the container in a dry ice/ETOH bath and then thawing the suspension at room temperature, and was then diluted with 20 ml of MIB. The suspension was next homogenized with 10 strokes in a Potter-Elvehjem homogenizer (rheostat setting 28). The resulting homogenate was further diluted with MIB to a volume of approximately 200 ml and centrifuged at 600×g at 4° C. for 10 min. […] Protein concentration was measured using the Pierce BCA (Pierce Chemical Co., Rockford, Ill.) according to the manufacturer's instructions. […]

[3] = molecular target: T4, His-tagged huANT3 : CypD-GST interaction (Homo sapiens, UniProt P30405); assay: Nickel bead immunoassay of huANT3:huCypD interaction (Western, anti-GST); type: binding
T4 construct: made in house; host or cells: His-huANT3: Trichoplusia ni cells infected with baculovirus (pMK4B-huANT3); GST-huCypD: E. coli (pMK12-GST-huCypD)
T4 sequence (P30405 30-207): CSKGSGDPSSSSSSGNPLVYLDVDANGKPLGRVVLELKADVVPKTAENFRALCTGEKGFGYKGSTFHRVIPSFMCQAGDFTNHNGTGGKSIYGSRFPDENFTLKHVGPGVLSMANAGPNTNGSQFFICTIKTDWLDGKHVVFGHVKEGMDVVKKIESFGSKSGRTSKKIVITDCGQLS
Description: Each portion was suspended in 1 ml of MSB with protease inhibitors (leupeptin, final concentration 10 ug/ml; pepstatin, final concentration 10 ug/ml; aprotinin, final concentration, 2 ug/ml; phenylmethylsulfonyl fluoride {PMSF}, final concentration, 100 μM; all from Sigma Chemical Co., St Louis, Mo.). The resuspended cell suspensions were frozen and thawed twice, then homogenized using a rotating teflon-coated probe and a close-fitting glass container (10 passes). The cellular homogenate was centrifuged (3,700 rpm, approximately 1,500×g) at 4° C. for 5 minutes; this supernatant from the first spin was saved. The pellet was washed with about 500 μl of MSB with protease inhibitors, centrifuged (3,800 rpm, approximately 1,600×g) at 4° C. for 5 minutes, and supernatant from this spin was combined with the supernatant from the first spin. The combined supernatant was centrifuged (14,000 rpm, approximately 20,800×g) at 4° C. for 15 minutes, and the pellet was resuspended in 300 μl of a 1:1 solution of (a) 20 mM MOPS and (b) MSB, wherein both (a) and (b) contain the previously described protease inhibitors. The resultant suspension was frozen and thawed three times.
One hundred (100) μl of T. ni mitochondria (9.83 μg/ml) was thawed slowly on ice and then centrifuged at 4° C. for 15 minutes to pellet mitochondria. […]
The extracts were evaluated by Western analysis. […]

T1 sequence (P30405 30-207): as above
T3 sequence (P30405 30-207): as above
T2 sequence (P30405 30-207): as above

Substance | rotamase activity (CypD rotamase activity) | binding of GST-CypD to ANT/BR PLS [1] | GST-CypD in SMP pellet fractions [2] | amount of CypD-GST retained on beads ([3]; His-tagged huANT3 present (lanes 2', 3') versus absent (lane 1')) | binding of CypD-GST to His-tagged ANT3 on a solid support ([3]; summary statement)
Ek-CypD: CypD liberated from the polyHis fusion tag following enterokinase cleavage | rotamase activity was also demonstrated |  |  |  | 
GST-CypD: recombinant glutathione S-transferase-human cyclophilin D fusion protein expressed from pMK12-GST-huCypD | readily apparent rotamase activity | readily apparent | readily detectable | visibly increased by roughly an order of magnitude | specifically binds
His-CypD: recombinant polyHis-tagged human CypD fusion protein, purified on nickel columns or by FPLC | rotamase activity was also demonstrated |  |  |  | 
